# Experimental data published in PMC4791427, “Structural dynamics of the yeast Shwachman-Diamond syndrome protein (Sdo1) on the ribosome and its implication in the 60S subunit maturation” (Protein & Cell, 2016).
# B1: Sdo1p domain I-II (1-169) (domain or fragment, S. cerevisiae, UniProt Q07953 1-169, looked up)
# chain: MPINQPSGQIKLTNVSLVRLKKARKRFEVACYQNKVQDYRKGIEKDLDEVLQIHQVFMNVSKGLVANKEDLQKCFGTTNVDDVIEEIMHKGEIQLSEKERQLMLNKVNNEMLTIVSAKCINPVSKKRYPPTMIHKALQELKFSPVINKPAKLQALEAIKLLVSKQIIPI
# notes: Sdo1p of S. cerevisiae, domains I-II, residues 1-169; cloned into pET21b; also called domains I-II; Sdo1p-I-II; source: E. coli BL21 (DE3), purified (Ni-NTA, gel filtration); not shown: His6, C-terminal, kept
# B2: uL16 (RPL10), in the 60S subunit (natural protein, S. cerevisiae (endogenous in S288C), UniProt P41805 1-221, looked up)
# chain: MARRPARCYRYQKNKPYPKSRYNRAVPDSKIRIYDLGKKKATVDEFPLCVHLVSNELEQLSSEALEAARICANKYMTTVSGRDAFHLRVRVHPFHVLRINKMLSCAGADRLQQGMRGAWGKPHGLAARVDIGQIIFSVRTKDSNKDVVVEGLRRARYKFPGQQKIILSKKWGFTNLDRPEYLKKREAGEVKDDGAFVKFLSKKGSLENNIREFPEYFAAQA
# notes: ribosomal protein uL16 (RPL10) of S. cerevisiae; met Sdo1p as a subunit of the purified 60S particle, not as an isolated protein; source: endogenous, part of the 60S subunit purified from S. cerevisiae S288C
# B3: Sdo1p, full-length (1-250) (natural protein)
# chain: MPINQPSGQIKLTNVSLVRLKKARKRFEVACYQNKVQDYRKGIEKDLDEVLQIHQVFMNVSKGLVANKEDLQKCFGTTNVDDVIEEIMHKGEIQLSEKERQLMLNKVNNEMLTIVSAKCINPVSKKRYPPTMIHKALQELKFSPVINKPAKLQALEAIKLLVSKQIIPIVRAKMKVKVAISEPSRQPELIEKISKLIASSPGESTKPELDPWTCTGLIDPVNYRDLMTLCDKKGTVQVLDMAVIDNTTHN
# Legend:
# [1] = target: T1, Sdo1p, full-length (1-250) (S. cerevisiae, UniProt Q07953 1-250); experiment: BLI; Octet RED96; Sdo1p variants (2 μg/mL) immobilised on Anti-Penta-HIS biosensors; 60S subunit 1.75-48 nmol/L in 25 mmol/L Hepes-KOH pH 7.5, 100 mmol/L KCl, 2.5 mmol/L MgCl2; association and dissociation 240 s each
# T1 construct: Sdo1p, the SBDS homologue of S. cerevisiae, full-length construct, residues 1-250; cloned into pET21b; also called Sdo1p-FL; FL; source: E. coli BL21 (DE3), purified (Ni-NTA, gel filtration); not shown: His6, C-terminal, kept
# T1 sequence (looked up): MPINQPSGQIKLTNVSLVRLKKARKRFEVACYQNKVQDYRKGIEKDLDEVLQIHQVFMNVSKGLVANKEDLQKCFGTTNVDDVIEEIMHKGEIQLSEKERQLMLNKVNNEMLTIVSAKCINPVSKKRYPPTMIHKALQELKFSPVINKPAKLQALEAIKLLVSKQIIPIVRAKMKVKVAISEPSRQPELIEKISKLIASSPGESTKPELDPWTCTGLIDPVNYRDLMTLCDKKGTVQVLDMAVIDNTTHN
# [2] = target: Sdo1p domain I-II (1-169) (S. cerevisiae) (UniProt Q07953); experiment: as above
# [3] = target: The truncated domain I, II and II-III; experiment: as above
# [4] = target: B2; experiment: cross-linking; CX-MS: 50 pmol 60S with full-length or truncated Sdo1p at 1:20, 25 mmol/L Hepes-KOH pH 7.5, 100 mmol/L KCl, 2.5 mmol/L MgCl2; DSS or BS3, room temperature 1 h; trypsin, LC-MS/MS, pLink FDR <5%; settings: both partners purified
# [5] = target: T1, Sdo1p, full-length (1-250); experiment: as above; settings: both partners purified
# [6] = target: mature 60S ribosomal subunit of S. cerevisiae (S. cerevisiae (endogenous in S288C)) (UniProt P41805); experiment: cryo-EM structure; 60S subunit (100 nmol/L) with 20-fold (dimers, 14 Å map) or 10-fold (monomers, 9 Å map) excess of full-length Sdo1p, 30°C 15 min, without crosslinking
molecule,measurement,setting,value
mature 60S ribosomal subunit of S. cerevisiae (from UniProt P41805 1-221) (complex),Kd,[1],18 nM
same,Kd,[2],15 nM
same,Kd,[3],25 to 40 nM
B1,binding result,[4],binds
B2,binding result,[5],binds
B3,stoichiometry N,[6],1
